Laboratory results taken from patent US20150291697A1 (PERSEUS PROTEOMICS, published 2015).

B1: TfR006 antibody (parent antibody, IgG) (antibody, V domains shown)
VH: QVQLVQSGGGVVQPGRSLRLSCAASGFPFKSYGMHWVRQAPGKGLEWVAVISFDGSSKYYADSVKGRFTISRDNSKNTLYLQMNSLRGEDTAVYYCARDSNFWSGYYSPVDVWGQGTTVTVSS
VL: NFMLTQPHSVSESPGKTVTISCTRSSGSIASNSVQWYQQRPGSAPITVIYEDTQRPSGVPDRFSGSIDSSSNSASLTISGLQTEDEADYYCQSYDSAYHWVFGGGTKLAVL
B2: 3TF12 IgG1 antibody (from 3TF12 scFv of WO 2011/073943) (antibody, V domains shown)
VH: QVQLQESGGGLVQPGGSLRLSCAASGFSFNTYTMHWVRQAPGKGLEWVADIAYDGSTKYYADSVKGRFTISRDNAKNSLYLQMNSLRAEDTAVYYCARDAVAGEGYFDLWGRGTLVTVSS
VL: QSALTQDPAVSVALGQTVRITCQGDSLRSYYASWYQQLPGTAPKLLIYRNNQRPSGVPDRFSGSKSGTSASLAISGLRSEDEADYYCAAWDDSLSAWVFGGGTKLTVLG
notes: also called 3TF12 antibody

Tests used:
[1] = target: human transferrin receptor (TfR) on cells (human, UniProt P02786 1-760); test: cell-based or functional assay
human transferrin receptor (TfR) on cells, sequence (P02786 whole entry, the tested form may be a part): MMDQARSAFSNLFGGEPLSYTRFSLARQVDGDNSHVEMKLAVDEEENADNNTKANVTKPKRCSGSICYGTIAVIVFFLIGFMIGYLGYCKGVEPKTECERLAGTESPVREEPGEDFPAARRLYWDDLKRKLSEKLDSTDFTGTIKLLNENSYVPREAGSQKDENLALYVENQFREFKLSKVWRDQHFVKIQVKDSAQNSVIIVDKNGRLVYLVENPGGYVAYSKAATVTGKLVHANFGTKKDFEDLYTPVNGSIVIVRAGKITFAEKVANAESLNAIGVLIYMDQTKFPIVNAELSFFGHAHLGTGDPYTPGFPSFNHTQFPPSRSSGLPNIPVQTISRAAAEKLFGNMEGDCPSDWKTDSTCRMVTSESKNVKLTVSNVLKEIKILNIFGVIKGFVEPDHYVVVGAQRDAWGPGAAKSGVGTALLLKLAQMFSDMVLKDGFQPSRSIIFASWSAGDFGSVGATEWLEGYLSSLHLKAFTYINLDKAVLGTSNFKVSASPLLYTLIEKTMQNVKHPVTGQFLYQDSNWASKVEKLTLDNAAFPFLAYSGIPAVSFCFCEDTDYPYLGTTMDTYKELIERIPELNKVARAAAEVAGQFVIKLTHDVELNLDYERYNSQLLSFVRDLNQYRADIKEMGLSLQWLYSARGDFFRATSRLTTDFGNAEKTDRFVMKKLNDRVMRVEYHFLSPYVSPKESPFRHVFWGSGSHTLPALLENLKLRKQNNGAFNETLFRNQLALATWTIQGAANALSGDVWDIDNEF

[2] = target: T1, soluble TfR antigen (human TfR extracellular domain) (human, UniProt P02786 89-760); test: ELISA, soluble TfR antigen coated at 2 ug/mL, HRP anti-human IgG Fc, A450
T1 construct: also called soluble human TfR
T1 sequence (P02786 89-760 limits assumed): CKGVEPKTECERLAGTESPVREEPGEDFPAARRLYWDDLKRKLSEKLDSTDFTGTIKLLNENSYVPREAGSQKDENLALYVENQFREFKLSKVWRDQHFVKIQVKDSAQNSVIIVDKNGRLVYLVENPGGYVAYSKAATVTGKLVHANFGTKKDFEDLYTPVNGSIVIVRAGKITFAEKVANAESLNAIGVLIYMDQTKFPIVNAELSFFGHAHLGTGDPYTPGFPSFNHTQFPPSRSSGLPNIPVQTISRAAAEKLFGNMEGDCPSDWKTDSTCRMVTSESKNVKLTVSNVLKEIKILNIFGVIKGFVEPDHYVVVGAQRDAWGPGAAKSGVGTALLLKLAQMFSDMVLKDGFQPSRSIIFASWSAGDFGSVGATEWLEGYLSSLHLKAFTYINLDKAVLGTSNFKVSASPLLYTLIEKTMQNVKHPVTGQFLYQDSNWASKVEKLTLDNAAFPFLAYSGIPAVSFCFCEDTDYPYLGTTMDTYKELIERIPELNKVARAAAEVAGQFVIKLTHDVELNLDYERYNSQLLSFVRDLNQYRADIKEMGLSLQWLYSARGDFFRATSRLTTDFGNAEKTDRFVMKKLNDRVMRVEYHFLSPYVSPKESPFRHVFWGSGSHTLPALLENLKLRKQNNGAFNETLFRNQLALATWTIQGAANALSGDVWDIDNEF

Binder	Antibody concentration exhibiting 50% growth rate (IC50), K562 cells [1] [µg/mL]	Antibody concentration exhibiting 50% growth rate (IC50), MT-2 cells [1] [µg/mL]	binding result [2]
B1	0.034	0.008	
B2			binds
